Laboratory results taken from patent US20190031759A1 (TECHNION RESEARCH AND DEVELOPMENT FOUNDATION, published 2019).

Molecular target: recombinant single-chain HLA-A2-WT1Db126 complex (soluble, biotinylated scMHC-peptide complex) (human, site-specific biotinylation at the BirA recognition sequence at the carboxyl-terminus)
Test: SPR (ProteOn XPR36), soluble HLA-A2/WT1Db126 complexes on chip-immobilized Fabs coupled through an anti-human Fab

B1: F2 anti-HLA-A2/WT1Db126 TCR-like recombinant Fab antibody (Fab, V domains shown)
VH: QVQLVQSGGGLVKPGGSLRLSCAASGFTFSSYSMNWVRQAPGKGLEWVSSISSSSSYIYYADSVKGRFTISRDNAKNSLYLQMNSLRAEDTAVYYCARGDYYGLTFDPWGQGTLVTV
VL: LNFMLTQPHSVSESPGKTVTISCTRSSGSIASNYVQWYQQRPGSSPTTVIYEDNQRPSGVPDRFSGSIDSSSNSASLTISGLKTEDEADYYCQSYDSSNQNWVFGGGTKLTVLS
notes: Soluble human Fab from a naive phage Fab library, expressed in E. coli and purified on a TALON column; also called F2 Fab; F2 TCRL
  Kd: 400 nM

B2: F3 anti-HLA-A2/WT1Db126 TCR-like recombinant Fab antibody (Fab, V domains shown)
VH: EVQLVQSGAEVKKTGSSVKVSCKASGYTFTYRYLHWARQAPGQALEWMGWITPFNGNTNYAQKFQDRVTITRDRSMSTAYMELSSLRSEDTAMYYCASSAYDAFDIWGQGTMVTV
VL: LSSELTQDPAVSVALGQTVKITCQGDSLRIHYASWYQQKPGQAPVLVIYGKDNRPSGIPDRFSGSSSGTSASLTITGARAEDEADYYCNSRDNSGDHVLFGGGTKLTVV
notes: Soluble human Fab from a naive phage Fab library; also called F3 Fab; F3 TCRL
  Kd: 30 nM
